Experimental data as given in patent US20230357348A1 (AstraZeneca / MedImmune, published 2023).
Starred links: 1 amine or outer side, 2 acyl side, 3 side chain; linkers in the order of their positions; H or OH if unused. Non-standard residues stand in square brackets, D forms with d. Groups on a side chain read outwards from the residue. No end group written: not given here. *: point of attachment. C20 diacid = O=C(O)CCCCCCCCCCCCCCCCCCC(=O)*; C18 diacid = O=C(O)CCCCCCCCCCCCCCCCC(=O)*; γGlu = O=C(O)[C@H](CCC(=O)[*:2])N[*:1]; αMeF = C[C@](N)(Cc1ccccc1)C(=O)O; AEEA = NCCOCCOCC(=O)O; Aib = CC(C)(N)C(=O)O

How the values were obtained:
[1] = biological target: human GLP-1 receptor (hGLP-1R) (human, UniProt P43220 24-463); assay: cell-based or functional assay
[2] = biological target: human glucagon receptor (hGCGR) (human, UniProt P47871 26-477); assay: cell-based or functional assay
Chain of human glucagon receptor (hGCGR) (P47871 26-477): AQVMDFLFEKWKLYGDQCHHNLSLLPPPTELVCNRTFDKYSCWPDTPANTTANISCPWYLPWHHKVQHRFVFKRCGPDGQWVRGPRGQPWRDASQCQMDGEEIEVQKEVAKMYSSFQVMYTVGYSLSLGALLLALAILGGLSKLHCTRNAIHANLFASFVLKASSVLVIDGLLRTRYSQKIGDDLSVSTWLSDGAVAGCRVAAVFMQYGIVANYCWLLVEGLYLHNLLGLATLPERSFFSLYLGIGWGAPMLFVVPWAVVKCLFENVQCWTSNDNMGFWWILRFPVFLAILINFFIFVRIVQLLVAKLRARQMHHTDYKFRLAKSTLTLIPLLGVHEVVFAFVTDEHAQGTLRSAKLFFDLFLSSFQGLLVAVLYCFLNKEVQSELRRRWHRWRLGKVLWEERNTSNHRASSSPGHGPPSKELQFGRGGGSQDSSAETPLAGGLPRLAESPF

Binder | hGLP-1R EC50 (pM) [1] | hGluc-R EC50 (pM) [2]
H[Aib]QGTFTSDVSK[αMeF]LDTK([AEEA-AEEA-γGlu-C20 diacid])RAQDFVRWLLA[Aib]G-NH2 (N-terminus assumed; SMILES CC(C)C[C@H](NC(=O)[C@H](CC(C)C)NC(=O)[C@H](Cc1c[nH]c2ccccc12)NC(=O)[C@H](CCCNC(=N)N)NC(=O)[C@@H](NC(=O)[C@H](Cc1ccccc1)NC(=O)[C@H](CC(=O)O)NC(=O)[C@H](CCC(N)=O)NC(=O)[C@H](C)NC(=O)[C@H](CCCNC(=N)N)NC(=O)[C@H](CCCCNC(=O)COCCOCCNC(=O)COCCOCCNC(=O)CC[C@H](NC(=O)CCCCCCCCCCCCCCCCCCC(=O)O)C(=O)O)NC(=O)[C@@H](NC(=O)[C@H](CC(=O)O)NC(=O)[C@H](CC(C)C)NC(=O)[C@](C)(Cc1ccccc1)NC(=O)[C@H](CCCCN)NC(=O)[C@H](CO)NC(=O)[C@@H](NC(=O)[C@H](CC(=O)O)NC(=O)[C@H](CO)NC(=O)[C@@H](NC(=O)[C@H](Cc1ccccc1)NC(=O)[C@@H](NC(=O)CNC(=O)[C@H](CCC(N)=O)NC(=O)C(C)(C)NC(=O)[C@@H](N)Cc1c[nH]cn1)[C@@H](C)O)[C@@H](C)O)C(C)C)[C@@H](C)O)C(C)C)C(=O)N[C@@H](C)C(=O)NC(C)(C)C(=O)NCC(N)=O) [Peptide 477] | 54.1 pM | 117 pM
H[Aib]QGTFTSDVSK[αMeF]LDTK([AEEA-AEEA-γGlu-C20 diacid])RARDFVQWLLA[Aib]G-NH2 (N-terminus assumed; SMILES CC(C)C[C@H](NC(=O)[C@H](CC(C)C)NC(=O)[C@H](Cc1c[nH]c2ccccc12)NC(=O)[C@H](CCC(N)=O)NC(=O)[C@@H](NC(=O)[C@H](Cc1ccccc1)NC(=O)[C@H](CC(=O)O)NC(=O)[C@H](CCCNC(=N)N)NC(=O)[C@H](C)NC(=O)[C@H](CCCNC(=N)N)NC(=O)[C@H](CCCCNC(=O)COCCOCCNC(=O)COCCOCCNC(=O)CC[C@H](NC(=O)CCCCCCCCCCCCCCCCCCC(=O)O)C(=O)O)NC(=O)[C@@H](NC(=O)[C@H](CC(=O)O)NC(=O)[C@H](CC(C)C)NC(=O)[C@](C)(Cc1ccccc1)NC(=O)[C@H](CCCCN)NC(=O)[C@H](CO)NC(=O)[C@@H](NC(=O)[C@H](CC(=O)O)NC(=O)[C@H](CO)NC(=O)[C@@H](NC(=O)[C@H](Cc1ccccc1)NC(=O)[C@@H](NC(=O)CNC(=O)[C@H](CCC(N)=O)NC(=O)C(C)(C)NC(=O)[C@@H](N)Cc1c[nH]cn1)[C@@H](C)O)[C@@H](C)O)C(C)C)[C@@H](C)O)C(C)C)C(=O)N[C@@H](C)C(=O)NC(C)(C)C(=O)NCC(N)=O) [Peptide 475] | 6.75 pM | 61.5 pM
H[Aib]QGTFTSDVSK[αMeF]LDKK([AEEA-AEEA-γGlu-C18 diacid])RARDFVQWLL[Aib]E-NH2 (N-terminus assumed; SMILES CC(C)C[C@H](NC(=O)[C@H](Cc1c[nH]c2ccccc12)NC(=O)[C@H](CCC(N)=O)NC(=O)[C@@H](NC(=O)[C@H](Cc1ccccc1)NC(=O)[C@H](CC(=O)O)NC(=O)[C@H](CCCNC(=N)N)NC(=O)[C@H](C)NC(=O)[C@H](CCCNC(=N)N)NC(=O)[C@H](CCCCNC(=O)COCCOCCNC(=O)COCCOCCNC(=O)CC[C@H](NC(=O)CCCCCCCCCCCCCCCCC(=O)O)C(=O)O)NC(=O)[C@H](CCCCN)NC(=O)[C@H](CC(=O)O)NC(=O)[C@H](CC(C)C)NC(=O)[C@](C)(Cc1ccccc1)NC(=O)[C@H](CCCCN)NC(=O)[C@H](CO)NC(=O)[C@@H](NC(=O)[C@H](CC(=O)O)NC(=O)[C@H](CO)NC(=O)[C@@H](NC(=O)[C@H](Cc1ccccc1)NC(=O)[C@@H](NC(=O)CNC(=O)[C@H](CCC(N)=O)NC(=O)C(C)(C)NC(=O)[C@@H](N)Cc1c[nH]cn1)[C@@H](C)O)[C@@H](C)O)C(C)C)C(C)C)C(=O)N[C@@H](CC(C)C)C(=O)NC(C)(C)C(=O)N[C@@H](CCC(=O)O)C(N)=O) [Peptide 472] | 7.63 pM | 11.1 pM
H[Aib]QGTFTSDVSK[αMeF]LDTK([AEEA-AEEA-γGlu-C20 diacid])RAQDFVRWLLE[Aib]K-NH2 (N-terminus assumed; SMILES CC(C)C[C@H](NC(=O)[C@H](Cc1c[nH]c2ccccc12)NC(=O)[C@H](CCCNC(=N)N)NC(=O)[C@@H](NC(=O)[C@H](Cc1ccccc1)NC(=O)[C@H](CC(=O)O)NC(=O)[C@H](CCC(N)=O)NC(=O)[C@H](C)NC(=O)[C@H](CCCNC(=N)N)NC(=O)[C@H](CCCCNC(=O)COCCOCCNC(=O)COCCOCCNC(=O)CC[C@H](NC(=O)CCCCCCCCCCCCCCCCCCC(=O)O)C(=O)O)NC(=O)[C@@H](NC(=O)[C@H](CC(=O)O)NC(=O)[C@H](CC(C)C)NC(=O)[C@](C)(Cc1ccccc1)NC(=O)[C@H](CCCCN)NC(=O)[C@H](CO)NC(=O)[C@@H](NC(=O)[C@H](CC(=O)O)NC(=O)[C@H](CO)NC(=O)[C@@H](NC(=O)[C@H](Cc1ccccc1)NC(=O)[C@@H](NC(=O)CNC(=O)[C@H](CCC(N)=O)NC(=O)C(C)(C)NC(=O)[C@@H](N)Cc1c[nH]cn1)[C@@H](C)O)[C@@H](C)O)C(C)C)[C@@H](C)O)C(C)C)C(=O)N[C@@H](CC(C)C)C(=O)N[C@@H](CCC(=O)O)C(=O)NC(C)(C)C(=O)N[C@@H](CCCCN)C(N)=O) [Peptide 479] | 34.2 pM | 207 pM
H[Aib]QGTFTSDVSK[αMeF]LDTK([AEEA-AEEA-γGlu-C18 diacid])RAQDFVRWLLE[Aib]K-NH2 (N-terminus assumed; SMILES CC(C)C[C@H](NC(=O)[C@H](Cc1c[nH]c2ccccc12)NC(=O)[C@H](CCCNC(=N)N)NC(=O)[C@@H](NC(=O)[C@H](Cc1ccccc1)NC(=O)[C@H](CC(=O)O)NC(=O)[C@H](CCC(N)=O)NC(=O)[C@H](C)NC(=O)[C@H](CCCNC(=N)N)NC(=O)[C@H](CCCCNC(=O)COCCOCCNC(=O)COCCOCCNC(=O)CC[C@H](NC(=O)CCCCCCCCCCCCCCCCC(=O)O)C(=O)O)NC(=O)[C@@H](NC(=O)[C@H](CC(=O)O)NC(=O)[C@H](CC(C)C)NC(=O)[C@](C)(Cc1ccccc1)NC(=O)[C@H](CCCCN)NC(=O)[C@H](CO)NC(=O)[C@@H](NC(=O)[C@H](CC(=O)O)NC(=O)[C@H](CO)NC(=O)[C@@H](NC(=O)[C@H](Cc1ccccc1)NC(=O)[C@@H](NC(=O)CNC(=O)[C@H](CCC(N)=O)NC(=O)C(C)(C)NC(=O)[C@@H](N)Cc1c[nH]cn1)[C@@H](C)O)[C@@H](C)O)C(C)C)[C@@H](C)O)C(C)C)C(=O)N[C@@H](CC(C)C)C(=O)N[C@@H](CCC(=O)O)C(=O)NC(C)(C)C(=O)N[C@@H](CCCCN)C(N)=O) [Peptide 478] | 9.18 pM | 190 pM
H[Aib]QGTFTSDVSK[αMeF]LDTK([AEEA-AEEA-γGlu-C18 diacid])RARDFVQWLLA[Aib]G-NH2 (N-terminus assumed; SMILES CC(C)C[C@H](NC(=O)[C@H](CC(C)C)NC(=O)[C@H](Cc1c[nH]c2ccccc12)NC(=O)[C@H](CCC(N)=O)NC(=O)[C@@H](NC(=O)[C@H](Cc1ccccc1)NC(=O)[C@H](CC(=O)O)NC(=O)[C@H](CCCNC(=N)N)NC(=O)[C@H](C)NC(=O)[C@H](CCCNC(=N)N)NC(=O)[C@H](CCCCNC(=O)COCCOCCNC(=O)COCCOCCNC(=O)CC[C@H](NC(=O)CCCCCCCCCCCCCCCCC(=O)O)C(=O)O)NC(=O)[C@@H](NC(=O)[C@H](CC(=O)O)NC(=O)[C@H](CC(C)C)NC(=O)[C@](C)(Cc1ccccc1)NC(=O)[C@H](CCCCN)NC(=O)[C@H](CO)NC(=O)[C@@H](NC(=O)[C@H](CC(=O)O)NC(=O)[C@H](CO)NC(=O)[C@@H](NC(=O)[C@H](Cc1ccccc1)NC(=O)[C@@H](NC(=O)CNC(=O)[C@H](CCC(N)=O)NC(=O)C(C)(C)NC(=O)[C@@H](N)Cc1c[nH]cn1)[C@@H](C)O)[C@@H](C)O)C(C)C)[C@@H](C)O)C(C)C)C(=O)N[C@@H](C)C(=O)NC(C)(C)C(=O)NCC(N)=O) [Peptide 474] | 8.04 pM | 56.9 pM
H[Aib]QGTFTSDVSK[αMeF]LDRK([AEEA-AEEA-γGlu-C18 diacid])RARDFVQWLL[Aib]E-NH2 (N-terminus assumed; SMILES CC(C)C[C@H](NC(=O)[C@H](Cc1c[nH]c2ccccc12)NC(=O)[C@H](CCC(N)=O)NC(=O)[C@@H](NC(=O)[C@H](Cc1ccccc1)NC(=O)[C@H](CC(=O)O)NC(=O)[C@H](CCCNC(=N)N)NC(=O)[C@H](C)NC(=O)[C@H](CCCNC(=N)N)NC(=O)[C@H](CCCCNC(=O)COCCOCCNC(=O)COCCOCCNC(=O)CC[C@H](NC(=O)CCCCCCCCCCCCCCCCC(=O)O)C(=O)O)NC(=O)[C@H](CCCNC(=N)N)NC(=O)[C@H](CC(=O)O)NC(=O)[C@H](CC(C)C)NC(=O)[C@](C)(Cc1ccccc1)NC(=O)[C@H](CCCCN)NC(=O)[C@H](CO)NC(=O)[C@@H](NC(=O)[C@H](CC(=O)O)NC(=O)[C@H](CO)NC(=O)[C@@H](NC(=O)[C@H](Cc1ccccc1)NC(=O)[C@@H](NC(=O)CNC(=O)[C@H](CCC(N)=O)NC(=O)C(C)(C)NC(=O)[C@@H](N)Cc1c[nH]cn1)[C@@H](C)O)[C@@H](C)O)C(C)C)C(C)C)C(=O)N[C@@H](CC(C)C)C(=O)NC(C)(C)C(=O)N[C@@H](CCC(=O)O)C(N)=O) [Peptide 473] | 11.5 pM | 14.1 pM
